To fix the notation:
T1: human CTGF (antigen of the Biacore assays) (human, UniProt P29279 27-349)
T1 construct: also called antigen human CTGF; human CTGF protein
T1 sequence (looked up): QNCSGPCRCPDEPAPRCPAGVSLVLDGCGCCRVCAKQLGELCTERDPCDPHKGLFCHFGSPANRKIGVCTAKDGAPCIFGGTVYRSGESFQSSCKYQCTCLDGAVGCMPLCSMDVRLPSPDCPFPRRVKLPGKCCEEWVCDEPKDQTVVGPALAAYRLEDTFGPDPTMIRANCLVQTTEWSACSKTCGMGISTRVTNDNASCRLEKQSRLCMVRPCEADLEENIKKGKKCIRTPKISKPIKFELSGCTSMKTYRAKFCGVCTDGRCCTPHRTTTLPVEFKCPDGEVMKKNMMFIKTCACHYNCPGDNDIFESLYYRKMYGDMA

T2: mouse CTGF (antigen of the Biacore assay) (mouse, UniProt P29268 26-348)
T2 construct: also called mouse CTGF protein
T2 sequence (looked up): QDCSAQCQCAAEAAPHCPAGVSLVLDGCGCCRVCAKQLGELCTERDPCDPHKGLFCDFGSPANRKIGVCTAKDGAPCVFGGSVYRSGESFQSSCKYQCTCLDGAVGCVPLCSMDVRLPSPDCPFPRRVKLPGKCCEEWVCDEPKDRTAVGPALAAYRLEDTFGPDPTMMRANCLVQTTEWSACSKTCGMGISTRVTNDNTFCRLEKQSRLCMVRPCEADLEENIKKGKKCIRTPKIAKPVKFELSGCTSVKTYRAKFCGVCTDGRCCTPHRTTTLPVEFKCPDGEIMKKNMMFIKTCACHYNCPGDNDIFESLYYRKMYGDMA

B1: Hu147-22wk (antibody, human IgG1, kappa, V domains shown)
VH: EVQLVESGGGLVQPGGSLRLSCAASGFTFNTYAMNWVRQAPGKGLEWVARIRTKSNNYATYYADSVKDRFTISRDDSKNSLYLQMNSLKTEDTAVYYCVETGFAYWDQGTLVTVSS
VL: EIVLTQSPATLSLSPGERATLSCSASSSVSYMHWFQQKPGQSPKLLIYSTSNLASGIPARFSGSGSGTDYTLTISSLEPEDFAVYYCQQRSSYPLTFGQGTKLEIKR
B2: Hu147-14wk (antibody, human IgG1, kappa, V domains shown)
VH: B1 VH with N30S, A49G
VL: DIQMTQSPSSLSASVGDRVTITCSASSSVSYMHWFQQKPGKSPKLLIYSTSNLASGVPSRFSGSGSGTDYTLTISSLQPEDFATYYCQQRSSYPLTFGQGTKLEIKR
B3: Hu147-23wk (antibody, human IgG1, kappa, V domains shown)
VH: B1 VH
VL: B1 VL with L46W, I57V
B4: Hu147-31wk (antibody, human IgG1, kappa, V domains shown)
VH: B1 VH with T28S, K78E, N79S
VL: B1 VL with K44R
B5: Hu147-33wk (antibody, human IgG1, kappa, V domains shown)
VH: B1 VH with T28S, K78E, N79S
VL: B1 VL with L46W, I57V
B6: Hu147-34wk (antibody, human IgG1, kappa, V domains shown)
VH: B1 VH with T28S, K78E, N79S
VL: B2 VL
B7: Hu147-11wk (antibody, human IgG1, kappa, V domains shown)
VH: B1 VH with N30S, A49G
VL: B1 VL with K44R
B8: Hu147-24wk (antibody, human IgG1, kappa, V domains shown)
VH: B1 VH
VL: B2 VL
B9: Hu147-13wk (antibody, human IgG1, kappa, V domains shown)
VH: B1 VH with N30S, A49G
VL: B1 VL with L46W, I57V
B10: Hu147-32wk (antibody, human IgG1, kappa, V domains shown)
VH: B1 VH with T28S, K78E, N79S
VL: B1 VL
B11: Hu147-21wk (antibody, human IgG1, kappa, V domains shown)
VH: B1 VH
VL: B1 VL with K44R
B12: Hu147-15wk (antibody, human IgG1, kappa, V domains shown)
VH: B1 VH with N30S, A49G
VL: B2 VL with M4L, L46W
B13: positive control CTGF antibody mAb1 (antibody, V domains shown)
VH: EGQLVQSGGGLVHPGGSLRLSCAGSGFTFSSYGMHWVRQAPGKGLEWVSGIGTGGGTYSTDSVKGRFTISRDNAKNSLYLQMNSLRAEDMAVYYCARGDYYGSGSFFDCWGQGTLVTVSS
VL: DIQMTQSPSSLSASVGDRVTITCRASQGISSWLAWYQQKPEKAPKSLIYAASSLQSGVPSRFSGSGSGTDFTLTISSLQPEDFATYYCQQYNSYPPTFGQGTKLEIKR
notes: Positive control, from CN1829740B; also called pamrevlumab; FG-3019
B14: Hu164-77wl (antibody, human IgG1, lambda, V domains shown)
VH: EVQLQESGPGLVKPSQTLSLTCTVSGFSISTFGVHWIRQHPGKGLEWIGVIWRRGGTDYNAAFMSRVTISKDTSKNQVSLKLSSVTAADTAVYYCARDGGFDYWGQGTTVTVSS
VL: ETVVTQEPSLTVSPGGTVTLTCRSSIGAVTTSNYANWVQQKPGQAFRGLIGGTSNRAPWTPARFSGSLLGGKAALTLSGVQPEDEAEYYCALWYSTHYVFGGGTKLTVLG
B15: Hu164-87wl (antibody, human IgG1, lambda, V domains shown)
VH: B14 VH with I48L, V67L, L80F
VL: B14 VL

Positions count from the first letter of the chain named.

T3 sequence (chain, as listed by the source limits assumed): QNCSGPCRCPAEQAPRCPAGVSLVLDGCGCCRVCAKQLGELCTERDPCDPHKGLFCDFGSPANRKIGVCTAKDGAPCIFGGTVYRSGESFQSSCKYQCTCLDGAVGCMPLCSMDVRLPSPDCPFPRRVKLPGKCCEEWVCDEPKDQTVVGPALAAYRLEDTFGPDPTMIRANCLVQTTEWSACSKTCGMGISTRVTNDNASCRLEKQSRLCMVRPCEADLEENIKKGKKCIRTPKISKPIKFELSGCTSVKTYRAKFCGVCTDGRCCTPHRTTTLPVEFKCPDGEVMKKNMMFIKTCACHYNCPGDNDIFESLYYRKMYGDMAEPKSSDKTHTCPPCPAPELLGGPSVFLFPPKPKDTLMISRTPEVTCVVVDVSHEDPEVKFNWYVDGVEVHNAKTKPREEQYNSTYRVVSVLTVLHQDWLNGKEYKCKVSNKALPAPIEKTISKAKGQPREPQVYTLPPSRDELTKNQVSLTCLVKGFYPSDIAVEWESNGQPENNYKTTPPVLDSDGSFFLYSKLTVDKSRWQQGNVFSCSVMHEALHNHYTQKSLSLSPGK

One assay concerns the target T3, Cynomolgus CTGF-Fc (fusion protein of cynomolgus CTGF coding region with Fc) (cynomolgus).
T3 construct: also called cyno-CTGF-mFc protein; cyno-CTGF protein with Fc tag
Nature of the assay: ELISA, cyno-CTGF-Fc captured by anti-mFc. The protocol:
The binding activity of anti-monkey CTGF antibody to monkey CTGF protein was tested by ELISA assay. A 96-well microtiter plate was directly coated with anti-mFc protein, and then the cyno-CTGF protein with Fc tag was bound to the plate, and then the antibody was added. The signal strength upon the addition of the antibody was used to determine the binding activity of the antibody to cyno-CTGF. The specific experimental procedures were as follows:
The anti-mFc Protein (Sigma, Cat No. M4280) was diluted with PBS, pH 7.4 (Shanghai Yuanpei, Cat No. B320) buffer to a concentration of 2 μg/ml, which was added into the 96-well microtiter plate (Corning, Cat No. CLS3590-100EA) at 50 μl/well, and incubated in an incubator at 37° C. for 2 hours. The liquid was removed, 250 μl/well blocking solution (5% skim milk (BD skim milk, Cat No.232100) diluted in PBS) was added, and incubated in an incubator at 37° C. for 3 hours or at 4° C. overnight (16-18 hours) for blocking. After the blocking was finished, the blocking solution was removed, the plate was washed for 3 times with PBST buffer (PBS containing 0.1% Tween-20, pH 7.4), 50 μl of 1 μg/ml cyno-CTGF-mFc protein was added into each well, incubated in an incubator at 37° C. for 1 hour, and then the plate was washed for 3 times with PBST buffer (PBS containing 0.1% Tween-20, pH 7.4). 50 μl/well of various concentrations of each of the test antibodies (antibodies purified from hybridoma or humanized antibodies) diluted with sample dilution solution were added, and incubated in an incubator at 37° C. for 1 hours. After the incubation was finished, the plate was washed for 3 times with PBST, 50 μl/well of HRP-labeled goat anti-mouse secondary antibody (Jackson Immuno Research, Cat No. 115-035-003) or goat anti-human secondary antibody (Jackson Immuno Research, Cat No. 109-035-003) diluted with sample dilution solution was added, and incubated at 37° C. for 1 hour. The plate was washed for 5 times with PBST, 50 μl/well of TMB chromogenic substrate (KPL, Cat No. 52-00-03) was added, incubated at room temperature for 5-10 min, and 50 μl/well of 1 M H₂SO₄ was added to stop the reaction. The absorbance value was read by a microplate reader (Molecular Devices, VERSA max) at a wavelength of 450 nm, and the data was analyzed with GraphPad Prism 5. The binding of CTGF antibody to cyno CTGF protein was calculated as EC50 value.
Molecule B1 came in with an EC50 of 0.073 nM.

B2 displayed an EC50 of 0.077 nM.

B3 showed an EC50 of 0.063 nM.

Regarding B4, the response was half-maximal at 0.07 nM (EC50).

B5 gave an EC50 of 0.044 nM.

The molecule B6 had a concentration for a half-maximal effect (EC50) of 0.144 nM.

Molecule B7 gave an EC50 of 0.052 nM.

In turn, B8 yielded an EC50 of 0.08 nM.

B9: the EC50 worked out at 0.043 nM.

B10: it took 0.079 nM to reach a half-maximal effect (EC50).

B11 gave an EC50 of 0.053 nM.

B12 displayed an EC50 of 0.053 nM.

B13 gave an EC50 of 0.086 nM.

As to B14, the EC50 is 0.038 nM.

As to B15, the EC50 was 0.034 nM.

In another assay the target is T1, human CTGF (antigen of the Biacore …). Nature of the assay: Biacore, antibody captured on Protein A, CTGF in flow, 1:1 fit. From the text: (§1) A certain amount of each of the test antibodies was affinity-captured with Protein A biosensor chip (Cat. # 29127556, GE), and then a certain concentration of human or mouse CTGF was allowed to flow through the surface of the chip. The reaction signals were detected in real time with Biacore instrument to generate a binding and dissociation curve. After the dissociation was completed in each cycle, the biosensor chip was washed and regenerated with Glycine-HCl regeneration solution pH 1.5 (Cat. # BR-1003-54, GE). The running buffer for the assay was 1×HBS-EP buffer solution (Cat. # BR-1001-88, GE).
The molecule B1 returned a Kd of 1.01 nM, a koff of 0.0142 s⁻¹ and a kon of 1.4e+07 M⁻¹ s⁻¹.

For B2, binding was put at a Kd of 1.13 nM, the koff came out at 0.0554 s⁻¹ and the kon is 4.89e+07 M⁻¹ s⁻¹.

In turn, B3 returned a Kd of 0.818 nM, a koff of 0.0112 s⁻¹ and a kon of 1.37e+07 M⁻¹ s⁻¹.

For the molecule B4, the dissociation constant (Kd) was determined as 0.894 nM, the koff was determined as 0.0159 s⁻¹ and the kon is 1.78e+07 M⁻¹ s⁻¹.

As to B5, the dissociation constant (Kd) was determined as 0.713 nM, the koff was determined as 0.0104 s⁻¹ and the kon worked out at 1.45e+07 M⁻¹ s⁻¹.

Take B6: the Kd worked out at 1.05 nM, the koff worked out at 0.0155 s⁻¹ and the kon is 1.47e+07 M⁻¹ s⁻¹.

Regarding B7, binding was characterised by a dissociation constant (Kd) of 1.13 nM, the koff came to 0.0336 s⁻¹ and the kon came out at 2.98e+07 M⁻¹ s⁻¹.

In the case of B9, the Kd came out at 0.808 nM, the koff amounted to 0.024 s⁻¹ and the kon is 2.97e+07 M⁻¹ s⁻¹.

Molecule B10 yielded a Kd of 0.91 nM, a koff of 0.0133 s⁻¹ and a kon of 1.46e+07 M⁻¹ s⁻¹.

Molecule B11 yielded a Kd of 0.974 nM, a koff of 0.0162 s⁻¹ and a kon of 1.66e+07 M⁻¹ s⁻¹.

B14: the dissociation constant Kd was 0.343 nM, the koff was 0.0176 s⁻¹ and the on-rate constant (kon) came out at 5.15e+07 M⁻¹ s⁻¹.

The molecule B15 showed a Kd of 0.194 nM, a koff of 0.0204 s⁻¹ and a kon of 1.05e+08 M⁻¹ s⁻¹.

The target of a further assay is T2, mouse CTGF (antigen of the Biacore …). Nature of the assay: Biacore, antibody captured on Protein A, mouse CTGF in flow, 1:1 fit.
Source text: as §1
As for B3, the Kd was 2.12 nM, the koff amounted to 0.173 s⁻¹ and the kon came to 8.18e+07 M⁻¹ s⁻¹.

B4 displayed a Kd of 2.79 nM, a koff of 0.107 s⁻¹ and a kon of 3.83e+07 M⁻¹ s⁻¹.

Turning to B5, the Kd was 1.93 nM, the koff is 0.174 s⁻¹ and the on-rate (kon) stood at 9.01e+07 M⁻¹ s⁻¹.

In turn, B7 yielded a Kd of 3.11 nM, a dissociation rate constant (koff) of 0.374 s⁻¹ and a kon of 1.2e+08 M⁻¹ s⁻¹.

Consider B9, for which the Kd stood at 2.55 nM, the koff was 0.146 s⁻¹ and the kon worked out at 5.73e+07 M⁻¹ s⁻¹.

B10 returned a Kd of 2.49 nM, a koff of 0.343 s⁻¹ and a kon of 1.37e+08 M⁻¹ s⁻¹.

With B14, the Kd is 0.148 nM, the koff worked out at 0.00883 s⁻¹ and the kon turned out to be 5.98e+07 M⁻¹ s⁻¹.

B15 gave a dissociation constant (Kd) of 0.084 nM, a koff of 0.0044 s⁻¹ and a kon of 5.24e+07 M⁻¹ s⁻¹.

The record behind these values is US20220324953A1 (JIANGSU HENGRUI MEDICINE, published 2022).
